Assay results as given in publication PMC7749629.

Biological target: T1, h-PUS10 (recombinant PUS10 from total HEK293T extract) (human, UniProt Q3MIT2 1-529)
T1 sequence: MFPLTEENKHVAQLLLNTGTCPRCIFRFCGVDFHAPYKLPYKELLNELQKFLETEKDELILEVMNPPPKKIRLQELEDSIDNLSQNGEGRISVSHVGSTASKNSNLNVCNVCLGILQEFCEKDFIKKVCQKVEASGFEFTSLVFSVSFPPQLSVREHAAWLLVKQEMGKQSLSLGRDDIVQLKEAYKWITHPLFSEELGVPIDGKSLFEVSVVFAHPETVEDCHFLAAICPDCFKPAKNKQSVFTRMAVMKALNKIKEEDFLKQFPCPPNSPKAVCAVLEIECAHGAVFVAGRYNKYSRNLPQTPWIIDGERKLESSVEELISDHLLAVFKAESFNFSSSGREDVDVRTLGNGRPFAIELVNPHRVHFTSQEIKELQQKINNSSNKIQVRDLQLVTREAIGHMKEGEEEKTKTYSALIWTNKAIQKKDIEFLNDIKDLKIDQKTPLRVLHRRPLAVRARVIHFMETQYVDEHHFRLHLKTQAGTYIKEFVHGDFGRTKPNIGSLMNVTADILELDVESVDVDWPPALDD
Assay: EMSA

B1: mutated tRNAAU-Ala (U59A, G60A; GAAA at 57-60) (structured_RNA)
RNA: GGGGAAUUAGCUCAAAUGGUAGAGCGCUCGCUUAGCAUGCGAGAGGUAGCGGGAUCGAAACCCGCAUUCUCCA
modifications: unmodified transcript
- binding result: binds
